Test results: patent publication US20030180895A1

How the values were obtained:
Test in all cases: cell-based or functional assay
[1] = biological target: Bacillus subtilis xylanase A mutant G120D (Bacillus subtilis) (UniProt P18429)
[2] = biological target: Bacillus subtilis xylanase A mutant S31K (Bacillus subtilis) (UniProt P18429)
[3] = biological target: Bacillus subtilis xylanase A mutant I15K (Bacillus subtilis) (UniProt P18429)
[4] = biological target: Bacillus subtilis xylanase A mutant D11F (Bacillus subtilis) (UniProt P18429)
[5] = biological target: Bacillus subtilis xylanase A mutant D121K (Bacillus subtilis) (UniProt P18429)
[6] = biological target: Bacillus subtilis xylanase A mutant R122D (Bacillus subtilis) (UniProt P18429)
[7] = biological target: Bacillus subtilis xylanase A mutant G120K (Bacillus subtilis) (UniProt P18429)
[8] = biological target: Bacillus subtilis xylanase A mutant R122A (Bacillus subtilis) (UniProt P18429)
[9] = biological target: Bacillus subtilis xylanase A mutant N17K (Bacillus subtilis) (UniProt P18429)
[10] = biological target: Bacillus subtilis xylanase A mutant D121F (Bacillus subtilis) (UniProt P18429)
[11] = biological target: Bacillus subtilis xylanase A mutant T124Y (Bacillus subtilis) (UniProt P18429)
[12] = biological target: Bacillus subtilis xylanase A mutant N17Y (Bacillus subtilis) (UniProt P18429)
[13] = biological target: Thermomyces lanuginosus xylanase A mutant D19F (Thermomyces lanuginosus) (UniProt O43097)
[14] = biological target: Bacillus subtilis xylanase A mutant G12F (Bacillus subtilis) (UniProt P18429)
[15] = biological target: Thermomyces lanuginosus wildtype xylanase A (Thermomyces lanuginosus) (UniProt O43097)
[16] = biological target: Bacillus subtilis xylanase A mutant N29Y (Bacillus subtilis) (UniProt P18429)
[17] = biological target: Bacillus subtilis xylanase A mutant D11F/R122D (Bacillus subtilis) (UniProt P18429)
[18] = biological target: Bacillus subtilis xylanase A mutant D11F/G34D (Bacillus subtilis) (UniProt P18429)
[19] = biological target: Bacillus subtilis xylanase A mutant G34F (Bacillus subtilis) (UniProt P18429)
[20] = biological target: Bacillus subtilis xylanase A mutant D11W (Bacillus subtilis) (UniProt P18429)
[21] = biological target: Bacillus subtilis xylanase A mutant N114D (Bacillus subtilis) (UniProt P18429)
[22] = biological target: Bacillus subtilis xylanase A mutant T124D (Bacillus subtilis) (UniProt P18429)
[23] = biological target: Bacillus subtilis xylanase A mutant D11Y (Bacillus subtilis) (UniProt P18429)
[24] = biological target: Bacillus subtilis xylanase A mutant Q175S (Bacillus subtilis) (UniProt P18429)
[25] = biological target: Bacillus subtilis xylanase A mutant Y113K (Bacillus subtilis) (UniProt P18429)
[26] = biological target: Bacillus subtilis xylanase A mutant T124K (Bacillus subtilis) (UniProt P18429)
[27] = biological target: Bacillus subtilis xylanase A mutant T123K (Bacillus subtilis) (UniProt P18429)

## wheat endogenous xylanase inhibitor
[1]
  Relative inhibition, % at 1, 26 XIU/ml: 84%
  Relative inhibition, % at 3, 15 XIU/ml: 47%
  Relative inhibition, % at 6, 3 XIU/ml: 24%
  Relative inhibition, % at 12, 6 XIU/ml: 18%
[2]
  Relative inhibition, % at 1, 26 XIU/ml: 77%
  Relative inhibition, % at 3, 15 XIU/ml: 42%
  Relative inhibition, % at 6, 3 XIU/ml: 23%
  Relative inhibition, % at 12, 6 XIU/ml: 23%
[3]
  Relative inhibition, % at 1, 26 XIU/ml: 84%
  Relative inhibition, % at 3, 15 XIU/ml: 47%
  Relative inhibition, % at 6, 3 XIU/ml: 28%
  Relative inhibition, % at 12, 6 XIU/ml: 23%
[4]
  Relative inhibition, % at 1, 26 XIU/ml: 114%
  Relative inhibition, % at 3, 15 XIU/ml: 119%
  Relative inhibition, % at 6, 3 XIU/ml: 116%
  Relative inhibition, % at 12, 6 XIU/ml: 115%
[5]
  Relative inhibition, % at 1, 26 XIU/ml: 104%
  Relative inhibition, % at 3, 15 XIU/ml: 95%
  Relative inhibition, % at 6, 3 XIU/ml: 85%
  Relative inhibition, % at 12, 6 XIU/ml: 75%
[6]
  Relative inhibition, % at 1, 26 XIU/ml: 85%
  Relative inhibition, % at 3, 15 XIU/ml: 59%
  Relative inhibition, % at 6, 3 XIU/ml: 41%
  Relative inhibition, % at 12, 6 XIU/ml: 28%
[7]
  Relative inhibition, % at 1, 26 XIU/ml: 85%
  Relative inhibition, % at 3, 15 XIU/ml: 52%
  Relative inhibition, % at 6, 3 XIU/ml: 29%
  Relative inhibition, % at 12, 6 XIU/ml: 22%
[8]
  Relative inhibition, % at 1, 26 XIU/ml: 78%
  Relative inhibition, % at 3, 15 XIU/ml: 46%
  Relative inhibition, % at 6, 3 XIU/ml: 33%
  Relative inhibition, % at 12, 6 XIU/ml: 26%
[9]
  Relative inhibition, % at 1, 26 XIU/ml: 88%
  Relative inhibition, % at 3, 15 XIU/ml: 48%
  Relative inhibition, % at 6, 3 XIU/ml: 31%
  Relative inhibition, % at 12, 6 XIU/ml: 26%
[10]
  Relative inhibition, % at 1, 26 XIU/ml: 101%
  Relative inhibition, % at 3, 15 XIU/ml: 89%
  Relative inhibition, % at 6, 3 XIU/ml: 72%
  Relative inhibition, % at 12, 6 XIU/ml: 60%
[11]
  Relative inhibition, % at 1, 26 XIU/ml: 101%
  Relative inhibition, % at 3, 15 XIU/ml: 76%
  Relative inhibition, % at 6, 3 XIU/ml: 49%
  Relative inhibition, % at 12, 6 XIU/ml: 33%
[12]
  Relative inhibition, % at 1, 26 XIU/ml: 79%
  Relative inhibition, % at 3, 15 XIU/ml: 42%
  Relative inhibition, % at 6, 3 XIU/ml: 23%
  Relative inhibition, % at 12, 6 XIU/ml: 19%
[13]
  Relative inhibition, % at 1, 26 XIU/ml: 73%
  Relative inhibition, % at 3, 15 XIU/ml: 38%
  Relative inhibition, % at 6, 3 XIU/ml: 24%
  Relative inhibition, % at 12, 6 XIU/ml: 20%
[14]
  Relative inhibition, % at 1, 26 XIU/ml: 110%
  Relative inhibition, % at 3, 15 XIU/ml: 106%
  Relative inhibition, % at 6, 3 XIU/ml: 100%
  Relative inhibition, % at 12, 6 XIU/ml: 92%
[15]
  Relative inhibition, % at 1, 26 XIU/ml: 45%
  Relative inhibition, % at 3, 15 XIU/ml: 24%
  Relative inhibition, % at 6, 3 XIU/ml: 17%
  Relative inhibition, % at 12, 6 XIU/ml: 14%
[16]
  Relative inhibition, % at 1, 26 XIU/ml: 85%
  Relative inhibition, % at 3, 15 XIU/ml: 49%
  Relative inhibition, % at 6, 3 XIU/ml: 30%
  Relative inhibition, % at 12, 6 XIU/ml: 24%
[17]
  Relative inhibition, % at 1, 26 XIU/ml: 109%
  Relative inhibition, % at 3, 15 XIU/ml: 111%
  Relative inhibition, % at 6, 3 XIU/ml: 110%
  Relative inhibition, % at 12, 6 XIU/ml: 109%
[18]
  Relative inhibition, % at 1, 26 XIU/ml: 104%
  Relative inhibition, % at 3, 15 XIU/ml: 106%
  Relative inhibition, % at 6, 3 XIU/ml: 103%
  Relative inhibition, % at 12, 6 XIU/ml: 104%
[19]
  Relative inhibition, % at 1, 26 XIU/ml: 76%
  Relative inhibition, % at 3, 15 XIU/ml: 53%
  Relative inhibition, % at 6, 3 XIU/ml: 34%
  Relative inhibition, % at 12, 6 XIU/ml: 29%
[20]
  Relative inhibition, % at 1, 26 XIU/ml: 101%
  Relative inhibition, % at 3, 15 XIU/ml: 88%
  Relative inhibition, % at 6, 3 XIU/ml: 70%
  Relative inhibition, % at 12, 6 XIU/ml: 50%
[21]
  Relative inhibition, % at 1, 26 XIU/ml: 84%
  Relative inhibition, % at 3, 15 XIU/ml: 57%
  Relative inhibition, % at 6, 3 XIU/ml: 39%
  Relative inhibition, % at 12, 6 XIU/ml: 29%
[22]
  Relative inhibition, % at 1, 26 XIU/ml: 87%
  Relative inhibition, % at 3, 15 XIU/ml: 52%
  Relative inhibition, % at 6, 3 XIU/ml: 32%
  Relative inhibition, % at 12, 6 XIU/ml: 25%
[23]
  Relative inhibition, % at 1, 26 XIU/ml: 120%
  Relative inhibition, % at 3, 15 XIU/ml: 114%
  Relative inhibition, % at 6, 3 XIU/ml: 126%
  Relative inhibition, % at 12, 6 XIU/ml: 124%
[24]
  Relative inhibition, % at 1, 26 XIU/ml: 88%
  Relative inhibition, % at 3, 15 XIU/ml: 59%
  Relative inhibition, % at 6, 3 XIU/ml: 30%
  Relative inhibition, % at 12, 6 XIU/ml: 19%
[25]
  Relative inhibition, % at 1, 26 XIU/ml: 103%
  Relative inhibition, % at 3, 15 XIU/ml: 85%
  Relative inhibition, % at 6, 3 XIU/ml: 63%
  Relative inhibition, % at 12, 6 XIU/ml: 47%
[26]
  Relative inhibition, % at 1, 26 XIU/ml: 110%
  Relative inhibition, % at 3, 15 XIU/ml: 92%
  Relative inhibition, % at 6, 3 XIU/ml: 73%
  Relative inhibition, % at 12, 6 XIU/ml: 57%
[27]
  Relative inhibition, % at 1, 26 XIU/ml: 80%
  Relative inhibition, % at 3, 15 XIU/ml: 46%
  Relative inhibition, % at 6, 3 XIU/ml: 30%
  Relative inhibition, % at 12, 6 XIU/ml: 25%
